Measured values taken from patent publication US20160251421A1 (AstraZeneca / MedImmune, published 2016).
Residue numbers refer to the chain shown, from its start.

T1: biotinylated recombinant human Angiopoietin-2 (R&D Systems, Inc. Cat. No. BT623) (human, UniProt O15123 19-496, limits assumed, biotinylated (sites not given))
T1 construct: Bought reagent; also called Ang-2; Ang2
T1 sequence (looked up): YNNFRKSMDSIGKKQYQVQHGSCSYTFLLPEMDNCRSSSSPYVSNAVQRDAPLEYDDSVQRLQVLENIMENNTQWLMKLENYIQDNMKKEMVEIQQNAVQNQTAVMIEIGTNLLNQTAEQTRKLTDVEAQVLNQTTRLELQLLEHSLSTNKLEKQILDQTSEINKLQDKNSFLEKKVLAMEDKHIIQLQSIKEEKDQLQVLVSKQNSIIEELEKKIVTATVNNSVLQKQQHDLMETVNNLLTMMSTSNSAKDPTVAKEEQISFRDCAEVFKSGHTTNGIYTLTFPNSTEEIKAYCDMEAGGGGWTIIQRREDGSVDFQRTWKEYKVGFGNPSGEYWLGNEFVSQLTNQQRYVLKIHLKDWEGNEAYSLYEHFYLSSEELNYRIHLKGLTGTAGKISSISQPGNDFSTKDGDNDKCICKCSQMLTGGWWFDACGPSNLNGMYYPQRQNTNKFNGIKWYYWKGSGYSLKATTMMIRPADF

B1: anti-Ang-2 monoclonal antibody 5.88.3 (antibody, V domains shown)
VH: EVQMVESGGGLVQPGGSLRLSCAASGFTLRSYWMSWVRQAPGKGLEWVANIKEDGSEKYHVDSVKGRFTISRDNAENSLFLQMSSLRAEDTAVYYCARDMEASAGLFDYWGQGTLVTVSS
VL: EIVMTQSPATLSVSPGERAILSCRASQSISSNLAWYQQKPGQAPRLLIYGASTRATGIPARFSGSGSGTEFTLTISSLQSEDFAVYYCQQYNYWWTFGQGTKVEIKR
notes: Fully human IgG kappa from XenoMouse hybridoma (strains XMG2 and XMG4); IgG purified from hybridoma supernatant; also called mAb 5.88.3
B2: anti-Ang-2 monoclonal antibody 3.3.2 (antibody, V domains shown)
VH: EVQLVESGGGLVQPGGSLRLSCAVSGFTFSSYWMSWVRQAPGKGLEWVANIKQDGSEKYYVDSVKGRFTISRDNAKNSLYLQMNSLRAEDTAVYYCARDQGIAVAGPFDYWGQGTLVTVSS
VL: B1 VL with I20T, S28T, I29V, N32D, T53I, Y87S, N92Y, Y93N
notes: Fully human IgG kappa from XenoMouse hybridoma (strains XMG2 and XMG4); IgG purified from hybridoma supernatant; also called mAb 3.3.2
B3: anti-Ang-2 monoclonal antibody 3.31.2 (antibody, V domains shown)
VH: EVQLVESGGGLVQPGGSLRLSCAASGFTFSSYWMSWVRQAPGKGLEWVANIKQDGSDKYYVDSVKGRFTISRDNAKNSLYLRMNSLRAEDTAVFYCARDMGSGWFDYWGQGTLVTVSS
VL: B1 VL with I2V, I20T, I29V, S30G, Y87C, Y93H
notes: Fully human IgG kappa from XenoMouse hybridoma (strains XMG2 and XMG4); IgG purified from hybridoma supernatant; also called mAb 3.31.2
B4: anti-Ang-2 monoclonal antibody 5.101.1 (antibody, V domains shown)
VH: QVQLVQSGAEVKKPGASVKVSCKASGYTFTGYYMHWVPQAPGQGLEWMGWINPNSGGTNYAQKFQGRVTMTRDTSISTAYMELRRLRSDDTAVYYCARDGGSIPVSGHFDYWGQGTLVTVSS
VL: B1 VL with I20T, I29L, S30I, Y49F, Q89H, Y93N
notes: Fully human IgG kappa from XenoMouse hybridoma (strains XMG2 and XMG4); IgG purified from hybridoma supernatant; also called mAb 5.101.1
B5: anti-Angiopoietin-2 monoclonal antibody 3.19.3 (antibody, V domains shown)
VH: QVQLVESGGGVVQPGRSLRLSCAASGFTFTNYGMHWGRQAPGKGLEWVAVISHDGNNKYYVDSVKGRFTISRDNSKNTLYLQMNSLRAEDTAVYYCAREGIDFWSGLNWFDPWGQGTLVTVSS
VL: EIVLTQSPGTLSLSPGERATLSCRASQSITGSYLAWYQQKPGQAPRLLICGASSWATGIPDRFSGSGSGTDFTLTISRLEPEDFAVYYCQQYSSSPITFGQGTRLEIKR
notes: Fully human IgG kappa from XenoMouse hybridoma (strains XMG2 and XMG4); IgG purified from hybridoma supernatant
B6: anti-Ang-2 monoclonal antibody 5.103.1 (antibody, V domains shown)
VH: QVQLVQSGAEVKKPGASVKVSCKASGYTFTGYYLYWVPQAPGQGLEWMGWISPNSGGTNYAQKFQGRVTMTRDTSISTAYMELSRLRSDDTAVYYCARDQVIAVAGPFDYWAQGTLVTVSS
VL: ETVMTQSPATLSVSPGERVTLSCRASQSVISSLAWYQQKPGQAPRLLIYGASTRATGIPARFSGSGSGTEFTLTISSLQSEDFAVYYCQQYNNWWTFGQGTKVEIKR
notes: Fully human IgG kappa from XenoMouse hybridoma (strains XMG2 and XMG4); IgG purified from hybridoma supernatant; also called mAb 5.103.1
B7: anti-Ang-2 monoclonal antibody 5.86.1 (antibody, V domains shown)
VH: B6 VH with Y33H, L34M, P38R, M48L, S52N, A97V, V101G, V104A, A112C
VL: DIRMTQSPSSLSASVGDRVTITCRASQRISTYLNWYQQKPGKAPKFLIYAASSLQSGVPSRFSGSGSGTDFTLTISSLQPEDFATYYCQQSYTTPFTFGPGTKVDIKR
notes: Fully human IgG kappa from XenoMouse hybridoma (strains XMG2 and XMG4); IgG purified from hybridoma supernatant; also called mAb 5.86.1
B8: anti-Ang-2 monoclonal antibody 5.28.1 (antibody, V domains shown)
VH: EVQLVESGGIVVQPGGSLRLSCAASGFTFDDYTMHWVRQTPGKGLEWVSLISWDGGSTYYADSVKGRFTISRDNSKNSLYLQMNSLRTEDTALYYCAKDIDIAVAGTGFDHWGQGTLVTVSS
VL: EIVMTQSPATLSVSPGERATLSCRASQSVTSNLAWYQQKPGQAPRLLIYGALIRATGIPARFSGSGSGTEFTLTISSLQSEDFAVYYCQQYNNWPFTFGPGTKVDIKR
notes: Fully human IgG kappa from XenoMouse hybridoma (strains XMG2 and XMG4); IgG purified from hybridoma supernatant; also called mAb 5.28.1

Molecular target: T1, biotinylated recombinant human …
Experiment: competitive binding ELISA: biotinylated Angiopoietin-2 on plate-coated Tie-2/Fc, purified mAb

Row | Binder | Efficacy (ratio of bound Angiopoietin-2 with mAb (30 µg/ml) versus without mAb)
1 | B1 | 0.403 ratio
2 | B2 | 0.388 ratio
3 | B3 | 0.375 ratio
4 | B4 | 0.364 ratio
5 | B5 | 0.395 ratio
6 | B6 | 0.232 ratio
7 | B7 | 0.384 ratio
8 | B8 | 0.389 ratio
